According to PMC9273042 (Science Immunology, 2022):

B1: IMM20253 (antibody, V domains shown)
VH: QVQLVESGGGVVQPGRSLRLSCTASGFTFSTYGMHWVRQAPGKGLEWVAVISYDGSSKHYAESVKGRFTISRDNSNNTLYLQMNRLRAEDTAVYYCARDGQPPGWGNYFDYWGQGTLVTVAS
VL: SYVLTQPPSVSVAPGKTARITCGGNGIGSKSVYWYQQKPGQAPEVVVYDDSDRPSGIPERFSGSNSGNTATLTISRVEAGDEADYYCQVWDSSSDPWVFGGGTKLTVL
B2: IMM20253 Fab (Fab, V domains shown)
VH: B1 VH
VL: B1 VL
notes: Fab of m3
B3: IMM20190 (antibody, V domains shown)
VH: EVQLVESGGGLVQPGGSLRLSCSASGFTVSSNYMSWVRQAPRKGLEWVSVIYAGGSTFYADSVKGRFTISRDNSKNTLLLQMNSLRAEDTAVYYCARDRGGYLDYWGQGTLVTVSS
VL: DIQMTQSPSSLSASVGDRVTITCRASQGISNYLAWYQQKPGKVPKLLIYAASTLQSGVPSRFSGSGSGTDFTLTISSLQPEDVATYYCQKYNSAPGLTFGGGTKVEIK
B4: IMM20190 Fab (Fab, V domains shown)
VH: B3 VH
VL: B3 VL
notes: Fab of m2
B5: IMM20184 Fab (Fab, V domains shown)
VH: EVQLVESGGGLVQPGGSLRLSCSASGFTFSSFWMSWVRQAPGKGLEWVATIREDGSEKYYVDSVKGRFSISRDNAKNSLYLQMNSLRAEDTAVYYCARSKWLRGSFDYWGQGTLVTVSS
VL: NFMLTQPHSVSESPGKTVTISCTRRSGSIASNYVQWYQQRPGSAPTTVIYEDNQRPSGVPDRFSGSIDSSSNSASLTISGLQTEDEADYYCQSYDSSNPPGASWVFGGGTKLTVL
notes: Fab of m1
B6: IMM20184 (antibody, V domains shown)
VH: B5 VH
VL: B5 VL

Key:
Settings in all cases: both partners purified
[1] = target: T1, RBD, REF variant (Wuhan-1) (SARS-CoV-2, UniProt P0DTC2); assay: ELISA
T1 construct: source: bought: SinoBio

RBD, UK variant (Alpha) = target: T2, RBD, UK variant (Alpha) (SARS-CoV-2, UniProt P0DTC2); assay: ELISA
T2 construct: source: bought: SinoBio

RBD, SA variant (Beta) = target: T3, RBD, SA variant (Beta) (SARS-CoV-2, UniProt P0DTC2); assay: ELISA
T3 construct: source: bought: SinoBio

[2] = target: soluble RBD (WA1/2020 variant) (SARS-CoV-2, WA1/2020, UniProt P0DTC2); assay: SPR
[3] = target: Trimer Spike (soluble, WA1/2020 variant) (SARS-CoV-2, WA1/2020, UniProt P0DTC2); assay: SPR
SARS-CoV-2 S 6P trimer = SARS-CoV-2 S 6P trimer (SARS-CoV-2, Wuhan-Hu-1/WA1 type, S-6P, stabilised); assay: cryo-EM structure

| Binder | percent inhibition of ACE2 binding [1] [%] | percent inhibition of ACE2 binding (RBD, UK variant (Alpha)) [%] | percent inhibition of ACE2 binding (RBD, SA variant (Beta)) [%] | Kd [2] [nM] | koff [2] [s⁻¹] | kon [2] [M⁻¹ s⁻¹] | Kd [3] [nM] | koff [3] [s⁻¹] | kon [3] [M⁻¹ s⁻¹] | stoichiometry N (SARS-CoV-2 S 6P trimer) |
| --- | --- | --- | --- | --- | --- | --- | --- | --- | --- | --- |
| B1 | ≤ 40 | ≤ 40 | ≤ 40 | 0.157 | 0.000218 | 1.39e+06 | 1.44 | 0.000117 | 81300 | – |
| B2 | – | – | – | – | – | – | – | – | – | 1 Fab:Trimer |
| B3 | – | – | – | 1.87 | 0.000376 | 202000 | 6.59 | 0.000195 | 29500 | – |
| B4 | – | – | – | – | – | – | – | – | – | 3 Fab:Trimer |
| B5 | – | – | – | – | – | – | – | – | – | 3 Fab:Trimer |
| B6 | – | – | – | 2.2 | 0.00131 | 595000 | 7.35 | 0.000229 | 31200 | – |
